Here are results for one substance from patent US20240360176.

This data set relates to pNaKtide.

Consider “Src kinase (mouse, endogenous in the liver of C57BL/6J mice)”, for which the “Src phosphorylation in mouse liver, ratio pSrc/pSrc+cSrc by Western blot” value is “Src phosphorylation peaked in the HFD groups at week 20, with paucity on pSrc peak in the pNaKtide and Exercise groups”.
